The values below come from the supplement of paper PMC10567573.

This series in a line: protein stability index of a GFP-peptide fusion (GPS, HEK-293T) (PSI 1-6); higher = more stable.
The mark [1] stands for this setting: treatment: DMSO, c terminus: a fixed tail appended.
The mark [2] stands for this setting: treatment: MLN4924 1 uM, 8 h, c terminus: a fixed tail appended.

± gives the standard deviation.
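Note: 24-mer peptide tiles fused after GFP, lentivirally expressed, FACS-sorted into six equal bins by GFP/DsRed ratio, decoded by Illumina sequencing, PSI is the read-weighted mean bin number.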

As for FRETEKSRWSEASRAILQRVQAAA [ALKBH7], the protein stability index turned out to be 3.21 ± 0.18 under setting [1] and 3.3 ± 0.16 under setting [2].

Sequence FRFDKPKKSRSPASAEAPGDSGER [ZNF511] displayed a protein stability index under setting [1] of 4.95 ± 0.11 and a protein stability index under setting [2] of 5.11 ± 0.38.

As for FRNCGACVTLMQGHEGSVSSCHFA [WDR88], the protein stability index was 2.85 ± 0.62 under setting [1] and 2.59 ± 0.37 under setting [2].

For the sequence FRPVSETCTDRSGISTGHWSGEVK [FUT8], the protein stability index turned out to be 3.79 ± 0.28 under setting [1] and 3.84 ± 0.26 under setting [2].

FRSRSRLTHLSLSRRASESSLSSE [CDC25B]: the protein stability index runs as follows: under setting [1], 3.84 ± 0.22; under setting [2], 3.99 ± 0.099.

For FSSITDSTMSLNIITVTLNMEKYN [DVL3], the protein stability index by setting is: under setting [1], 2.93 ± 0.63; under setting [2], 2.75 ± 0.57.

Turning to FTDYGLAALAVNTSILSRLPPEAL [RNF208], the protein stability index is, setting by setting: under setting [1], 2.29 ± 0.25; under setting [2], 2.13 ± 0.31.

As for FTEASMMMSLTKLADKELVHMISW [ESR2], the protein stability index is, setting by setting: under setting [1], 3.29 ± 0.78; under setting [2], 3.48 ± 1.2.

Regarding FTGNSKLELNFKAGDVIFLLSRIN [NCF4], the protein stability index by setting is: under setting [1], 2.67 ± 0.76; under setting [2], 3.16 ± 1.1.

As to FTGSQPTAERITQLSAPHCKKLSL [ALDH8A1], the protein stability index turned out to be 2.89 ± 0.5 under setting [1] and 3.46 ± 0.35 under setting [2].

Consider FTLASSSDTRVGAPATGSGTPGPF [CHIT1], for which the protein stability index is, setting by setting: under setting [1], 3.73 ± 0.19; under setting [2], 3.84 ± 0.39.

Consider FVENGHSESSGQTHLEGDTVQIIC [CFHR2], for which the protein stability index stood at 3.21 ± 0.38 under setting [1] and 3.67 ± 0.37 under setting [2].

For FWNSPSSPSSSAASSSSPSSSSAV [RHOBTB2], the protein stability index is, setting by setting: under setting [1], 4.41 ± 0.14; under setting [2], 4.4 ± 0.089.

GAAAPATPTPVAAALDACSGNDPF [SNAP91]: the protein stability index is, setting by setting: under setting [1], 5.18 ± 0.34; under setting [2], 5.15 ± 0.24.

With GAGDVVLLQRELAQEDSLNKLALQ [LYSMD4], the protein stability index reads like this: under setting [1], 4.29 ± 0.29; under setting [2], 4.01 ± 0.5.

Turning to GATLGQTTSEEAVGGATLAQTTSE [HDAC6], the protein stability index is, setting by setting: under setting [1], 5.37 ± 0.34; under setting [2], 5.63 ± 0.31.

Turning to GCEHSCVSSEDSFVCQCFEGYILR [MATN2], the protein stability index came out at 3.12 ± 0.38 under setting [1] and 3.27 ± 0.53 under setting [2].

As to GDDQPSETDHLSMEEEDPMPRQIS [TPRG1], the protein stability index runs as follows: under setting [1], 5.47 ± 0.17; under setting [2], 5.64 ± 0.22.

Turning to GDGLLVGSEKVTMQNLNDRLASYL [KRT16], the protein stability index worked out at 2.66 ± 0.17 under setting [1] and 2.78 ± 0.32 under setting [2].

In turn, GDGVPPRSLQDGTREGFGHSTSLK [LCOR] gave a protein stability index under setting [1] of 5.08 ± 0.24 and a protein stability index under setting [2] of 4.92 ± 0.22.

As to GDMNHEWIGNEWLPSLGLPQYRSY [PPFIA4], the protein stability index was 2.41 ± 0.73 under setting [1] and 2.8 ± 0.38 under setting [2].

For the sequence GEGKLSKRLKHKDDSVMKATQQAR [C22orf31], the protein stability index amounted to 4.64 ± 0.21 under setting [1] and 4.81 ± 0.22 under setting [2].

Consider GEKPFKCHLCNYACRRRDALTGHL [IKZF1], for which the protein stability index by setting is: under setting [1], 2.2 ± 0.12; under setting [2], 2.51 ± 0.53.

On to GELEDESLNRACHQQNKIKDLQKE [CEP70], for which the protein stability index was 5.3 ± 0.28 under setting [1] and 5.34 ± 0.24 under setting [2].

Take GFRLAEDGKRCRRKDVCKSTHHGC [MATN2]: the protein stability index is 3.99 ± 0.66 under setting [1] and 4.09 ± 0.42 under setting [2].

On to GGGGGGGGGGGGGGTSSNNSEEEE [ANKRD17], for which the protein stability index came out at 5.42 ± 0.23 under setting [1] and 5.41 ± 0.31 under setting [2].

Consider GGKSGELEQEEERLSKEWEDSKRW [CHGA], for which the protein stability index reads like this: under setting [1], 5.3 ± 0.33; under setting [2], 5.07 ± 0.32.

With GGLVVSAASLAGCLGALCENTCLL [TSPAN10], the protein stability index came to 2.79 ± 0.57 under setting [1] and 2.67 ± 0.54 under setting [2].

For GGSCRAPSTYGGGLSVSSRFSSGG [KRT16], the protein stability index reads like this: under setting [1], 2.97 ± 0.27; under setting [2], 3.02 ± 0.15.

Take GIAVWNMDVSREEAPQWLESDSCQ [WDFY1]: the protein stability index runs as follows: under setting [1], 3.81 ± 0.081; under setting [2], 3.74 ± 0.28.

Turning to GIDIMKTSFPGRGSIPEFFHIMKR [AASDHPPT], the protein stability index runs as follows: under setting [1], 2.33 ± 0.59; under setting [2], 2.501 ± 0.013.

GIFEESFIEERRQGLEQFINKIAG [SNX12] yielded a protein stability index under setting [1] of 2.98 ± 0.59 and a protein stability index under setting [2] of 2.84 ± 0.32.

In the case of GKGEGPIWLDNLHCTGNEATLAAC [LOXL2], the protein stability index reads like this: under setting [1], 3.43 ± 0.23; under setting [2], 3.52 ± 0.57.

GLALCPEVQDLLEGCELPDLPSSL [SMG5] gave a protein stability index under setting [1] of 4.05 ± 0.25 and a protein stability index under setting [2] of 3.96 ± 0.25.

As to GLEEADAEVSVISEADPQALLQAM [FBF1], the protein stability index came to 5.06 ± 0.26 under setting [1] and 5.05 ± 0.15 under setting [2].

On to GLEHAAAGGSSGTTARERPCVRPG [FBF1], for which the protein stability index stood at 4.96 ± 0.24 under setting [1] and 4.95 ± 0.2 under setting [2].

With GLGHGSTSRGGPWVGTGLAAALAG [CPOX], the protein stability index is, setting by setting: under setting [1], 3.17 ± 0.21; under setting [2], 3.21 ± 0.29.

Regarding GMDPERLKAFNMFVRLFVDENLDR [NOL4L], the protein stability index stood at 2.1 ± 0.42 under setting [1] and 2.39 ± 0.37 under setting [2].

In the case of GPEPKDKGSLPQPPITEVESQVFS [ZNF232], the protein stability index was determined as 5.51 ± 0.078 under setting [1] and 5.36 ± 0.23 under setting [2].

GPLPVKRGPPPRSGGPPPKRSAPS [RBMX]: the protein stability index is, setting by setting: under setting [1], 4.49 ± 0.39; under setting [2], 4.85 ± 0.25.

For the sequence GPRDPQLVPILIEAARNGKMKFVI [NSDHL], the protein stability index amounted to 2.11 ± 0.44 under setting [1] and 2.38 ± 0.38 under setting [2].

Regarding GPSAEAYLLHPAAFHGAPSHLPTR [TBX6], the protein stability index under setting [1] amounted to 3.31 ± 0.21 and the protein stability index under setting [2] turned out to be 3.42 ± 0.16.

Consider GRHYWEVEVGDKTHWAVGVCRDSV [TRIM39], for which the protein stability index was determined as 2.48 ± 0.41 under setting [1] and 2.42 ± 0.22 under setting [2].

Regarding GRLLFAGYNDYTINVWDVLKGSRV [GNB5], the protein stability index by setting is: under setting [1], 2.48 ± 0.58; under setting [2], 2.18 ± 0.17.

GRQKYKRRPEVDPLPFPGPFPAGP [ESRRA]: the protein stability index turned out to be 3.87 ± 0.22 under setting [1] and 4.02 ± 0.26 under setting [2].

The sequence GRVHLVKEKTAKHFFALKVMSIPD [PRKX] showed a protein stability index under setting [1] of 1.87 ± 0.52 and a protein stability index under setting [2] of 2.38 ± 0.57.

In turn, GRYPLIQTLRQELSLPYLPSGTPE [CHIT1] came in with a protein stability index under setting [1] of 3.51 ± 0.26 and a protein stability index under setting [2] of 3.47 ± 0.27.

Regarding GSDKCVFLKNTEVSSMECEKNLYW [CD69], the protein stability index runs as follows: under setting [1], 3.06 ± 0.26; under setting [2], 3.12 ± 0.36.

With GSGGTRGPPSRGGHMDDGGYSMNF [RBMX], the protein stability index stood at 3.96 ± 0.24 under setting [1] and 4 ± 0.43 under setting [2].

On to GSKARAEGRGPVTPLHLDLTQLHR [PLEKHN1], for which the protein stability index is, setting by setting: under setting [1], 3.52 ± 0.061; under setting [2], 3.835 ± 0.001.

Regarding GTAGDSMSYHSGSVFSARDRDPNS [TNXB], the protein stability index came to 4.66 ± 0.18 under setting [1] and 4.87 ± 0.14 under setting [2].

On to GTGAVVTSLFMTPLDVVKVRLQSQ [SLC25A39], for which the protein stability index runs as follows: under setting [1], 2.18 ± 0.11; under setting [2], 2.06 ± 0.52.

For the sequence GTNTVSFYTLSPNSHFSLNVKTLK [PCDHGC5], the protein stability index under setting [1] was 2.4 ± 0.39 and the protein stability index under setting [2] is 2.51 ± 0.21.

GVEVIVRISHTLYDLDKIIELNGG [CRY1]: the protein stability index under setting [1] was determined as 3.29 ± 1.2 and the protein stability index under setting [2] was 2.57 ± 0.76.

As for GYGGGFSSSSSFGSGFGGGYGGGL [KRT16], the protein stability index runs as follows: under setting [1], 2.47 ± 0.33; under setting [2], 2.57 ± 0.14.

In turn, GYYSEKLEAIQLDGEILFSLLQKV [TBC1D10A] had a protein stability index under setting [1] of 2.44 ± 0.59 and a protein stability index under setting [2] of 2.53 ± 0.32.

In the case of HAGTVYGGVMYISGGITHDTFQKE [KLHL13], the protein stability index by setting is: under setting [1], 2.32 ± 0.24; under setting [2], 2.31 ± 0.22.

For the sequence HDDGYMICCDKCSVWQHIDCMGID [KMT2E], the protein stability index by setting is: under setting [1], 2.67 ± 0.29; under setting [2], 2.92 ± 0.42.

HDSANCELPLLTPCSKAVMSQALK [ETS2]: the protein stability index is, setting by setting: under setting [1], 3.34 ± 0.28; under setting [2], 3.45 ± 0.24.

Take HETRLVEVDSGRQIEYEYKLAQAL [LMNB1]: the protein stability index turned out to be 3.81 ± 0.044 under setting [1] and 3.96 ± 0.29 under setting [2].

As for HEWKSLAPMDAPRYQHGIAVIGNF [KLHL13], the protein stability index runs as follows: under setting [1], 2.22 ± 0.2; under setting [2], 2.17 ± 0.26.

For the sequence HFVDEHGKDQGINIRQKVKELVEF [CLINT1], the protein stability index runs as follows: under setting [1], 3.26 ± 0.23; under setting [2], 3.83 ± 0.28.

As for HGASAPSVSREARQTVPPLTVRLH [PWWP2B], the protein stability index came out at 3.76 ± 0.48 under setting [1] and 3.73 ± 0.12 under setting [2].

Turning to HGEEEVETFAFQAEIAQLMSLIIN [HSP90AB1], the protein stability index was 2.58 ± 0.33 under setting [1] and 2.95 ± 0.28 under setting [2].

Regarding HIFNTLRSHLIDKGMLTSTTEDE [CDS2], the protein stability index runs as follows: (treatment: DMSO, c terminus: native) 2.71 ± 0.042; (treatment: MLN4924 1 uM, 8 h, c terminus: native) 3.23 ± 0.39.

In the case of HLANHDDLISKSFQGSQGRAYLFN [YPEL3], the protein stability index under setting [1] turned out to be 2.8 ± 0.075 and the protein stability index under setting [2] is 3.03 ± 0.24.

As to HLIKHRRTHTGEQPYTCSICRRNF [ZNF75A], the protein stability index came to 2.56 ± 0.28 under setting [1] and 2.99 ± 0.41 under setting [2].

With HMFTPKLDKMLDPQVWREAATQVF [SLC6A17], the protein stability index amounted to 2.11 ± 0.24 under setting [1] and 2.25 ± 0.47 under setting [2].

For the sequence HPDDRPKLNKPPETLITTIDSSSS [CYB5A], the protein stability index is, setting by setting: under setting [1], 4.85 ± 0.49; under setting [2], 5.04 ± 0.32.

For the sequence HPNIITLHDIFENKTDVVLILELV [DAPK3], the protein stability index came to 2.54 ± 0.14 under setting [1] and 2.34 ± 0.23 under setting [2].

As for HTAKCEKLQKEKEELERRFEDEVK [MTUS2], the protein stability index reads like this: under setting [1], 5.57 ± 0.26; under setting [2], 5.6 ± 0.07.

HTMEEEEDDDWGEDTTEEAQRRRM [EIF5]: the protein stability index was 5.55 ± 0.35 under setting [1] and 5.63 ± 0.28 under setting [2].
